Laboratory results as given in PMC5374404, “A key centriole assembly interaction interface between human PLK4 and STIL appears to not be conserved in flies” (Biology Open, 2017).
Where “and” joins values, the source holds several entries; their conditions need not be identical. Equal entries are not always repeated. Blank lines part the entries; values can stand above or below the binder they belong to. Ends that are not written are not given here.

Experiments:
[1] = target: the molecule itself; assay: crystal structure; STIL 726-750 alone, 0.91 Å; sitting drop, 19°C; tetramer (dimer of dimers) generated by crystallographic symmetry
[2] = target: the molecule itself; assay: SEC-MALS; STIL CCD (aa 717-758) alone, 100 µl injected at 62 to 4000 µM over an S200 10/300 column; 50 mM Tris pH 7.5, 150 mM NaCl, 2 mM DTT, 0.4 ml/min
[3] = target: T1, Drosophila Sak/PLK4 Polo-Box-3 domain (aa 657-745), tag cleaved (Drosophila melanogaster (Fruit fly), UniProt O97143); assay: analytical gel filtration
T1 chain: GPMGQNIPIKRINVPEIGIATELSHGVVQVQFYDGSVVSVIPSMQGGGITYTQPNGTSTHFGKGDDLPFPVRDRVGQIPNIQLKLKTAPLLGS

[4] = target: the molecule itself; assay: SEC-MALS; apo HsPB3 (aa 884-970) alone, 100 µl at 200 µM over a Superdex 200 10/300 column; 50 mM Tris pH 7.5, 150 mM NaCl, 2 mM DTT

B1: human STIL coiled-coil domain (aa 726-750), tag cleaved (domain or fragment)
chain: GGSLTEQDRQLRLLQAQIQRLLEAQSLM
notes: remnant left at the N-terminus of the CCD after TEV cleavage of the His-lipoyl tag; STIL, human, coiled-coil domain, residues 726-750; also called STIL^726-750; HsCCD; source: E. coli C41, purified (Ni-NTA, TEV cleavage, reverse Ni-NTA, size exclusion); not shown: His, N-terminal, cleaved; lipoyl domain (B. stearothermophilus dihydrolipoamide acetyltransferase), N-terminal, cleaved
stoichiometry N [1]: 4

B2: human STIL coiled-coil domain (aa 717-758), tag cleaved (domain or fragment)
chain: GGSGLSPDAYRFLTEQDRQLRLLQAQIQRLLEAQSLMPCSPKTTA
notes: remnant left at the N-terminus of the CCD after TEV cleavage of the His-lipoyl tag; STIL, human, coiled-coil domain, residues 717-758; also called HsCCD; STIL CCD; source: E. coli C41, purified (Ni-NTA, TEV cleavage, reverse Ni-NTA, size exclusion); not shown: His, N-terminal, cleaved; lipoyl domain (B. stearothermophilus dihydrolipoamide acetyltransferase), N-terminal, cleaved
stoichiometry N [2]: ≥ 2 and < 4

binding result [3]: no binding
Binder: NKSDLAALVSLVESVRHEQQQLRNLCEMILEQQQRAK (protein, also: His-lipoyl-tagged) [His-lipoyl-tagged Drosophila Ana2 coiled-coil domain (aa 193-229)]

B3: human PLK4 Polo-Box-3 domain (aa 884-970), tag cleaved (domain or fragment)
chain: GPMGSAQLLKSVFVKNVGWATQLTSGAVWVQFNDGSQLVVQAGVSSISYTSPNGQTTRYGENEKLPDYIKQKLQCLSSILLMFSNPTPNFH
notes: remnant left at the N-terminus of the PB3 construct after 3C cleavage of the His-MBP tag; PLK4, human, Polo-Box-3 domain, residues 884-970; from an E. coli codon-optimised cDNA (Geneart); also called HsPB3; apoHsPB3; source: E. coli B834, purified (Ni-NTA, 3C cleavage, reverse Ni-NTA, size exclusion); not shown: His, N-terminal, cleaved; MBP, N-terminal, cleaved
stoichiometry N [4]: 2
